The Tm is the temperature at the midpoint of the melting transition.

Where “and” joins values, the source holds several entries; their conditions need not be identical. Equal values may be shown once.

This is an account of results in FireProtDB (doi:10.1093/protein/12.10.841).

First the molecules themselves.
B1: Lysozyme C, P61626 (parent)
chain: MKALIVLGLVLLSVTVQGKVFERCELARTLKRLGMDGYRGISLANWMCLAKWESGYNTRATNYNAGDRSTDYGIFQINSRYWCNDGKTPGAVNACHLSCSALLQDNIADAVACAKRVVRDPQGIRAWVAWRNRCQNRDVRQYVQGCGV

The variants in one data set derive from B1. Conditions: Homo sapiens; pH 2.54; Thermal; DSC; glycine 0.05 M; reversible: yes; structure 1LZ1; whole UniProt chain shown.
As for I77F, the Tm is 59.8 °C, the “heat capacity change of unfolding” value was found to be 1.41 kcal/mol/K, the “unfolding enthalpy (calorimetric)” value turned out to be 99.9 kcal/mol and the “unfolding enthalpy (van 't Hoff)” value was determined as 108 kcal/mol.

The data set is the same for the next values; noted with them: Homo sapiens; pH 2.7; 64.9 °C; Thermal; DSC; glycine 0.05 M; reversible: yes; structure 1LZ1; whole UniProt chain shown.
On to I77F, for which the “ddG of mutation (higher = less stable)” value stood at 0.81 kcal/mol.
On to I77L, for which the “ddG of mutation (higher = less stable)” value was 0 kcal/mol.
Same read-out and setting: with I77Y the figure was 3.78 kcal/mol; with I77G, 3.82 kcal/mol.
On the same count and under the same terms, with I77T the figure was 2.22 kcal/mol.

Staying with this data set, now noted: Homo sapiens; pH 2.7; Thermal; DSC; glycine 0.05 M; reversible: yes; structure 1LZ1; whole UniProt chain shown.
For I77F, the melting temperature (Tm) stood at 64.9 °C.
Regarding I77L, the Tm was 64.9 °C; the “change of melting temperature, mutant - wild type (higher = more stable)” value (“change of melting temperature, mutant” below) was determined as 0 °C; the “heat capacity change of unfolding” value came out at 1.27 kcal/mol/K; the “unfolding enthalpy (calorimetric)” value worked out at 114 kcal/mol. The “unfolding enthalpy (van 't Hoff)” value stood at 122 kcal/mol.
For I77Y, the “change of melting temperature, mutant” value is -13.8 °C; the “heat capacity change of unfolding” value came to 1.34 kcal/mol/K; the “unfolding enthalpy (calorimetric)” value stood at 97.8 kcal/mol; the “unfolding enthalpy (van 't Hoff)” value is 105 kcal/mol.
For I77G, the Tm worked out at 52.2 °C; the “change of melting temperature, mutant” value was -12.7 °C; the “heat capacity change of unfolding” value was 1.24 kcal/mol/K; the “unfolding enthalpy (calorimetric)” value was found to be 106 kcal/mol. The “unfolding enthalpy (van 't Hoff)” value came out at 109 kcal/mol.
I77M: the Tm was 60.7 °C and 64.9 °C; the “change of melting temperature, mutant” value is -4.2 °C; the “heat capacity change of unfolding” value came to 1.27 kcal/mol/K; the “unfolding enthalpy (calorimetric)” value stood at 106 kcal/mol. The “unfolding enthalpy (van 't Hoff)” value was found to be 115 kcal/mol.
As to I77T, the Tm worked out at 64.9 °C.

The data set is the same for the next values; noted with them: Homo sapiens; pH 2.73; Thermal; DSC; glycine 0.05 M; reversible: yes; structure 1LZ1; whole UniProt chain shown.
On to I77F, for which the midpoint of thermal melting (Tm) turned out to be 62.8 °C, the “heat capacity change of unfolding” value turned out to be 1.58 kcal/mol/K, the “unfolding enthalpy (calorimetric)” value came out at 104 kcal/mol and the “unfolding enthalpy (van 't Hoff)” value was determined as 112 kcal/mol.

Still in this data set, the particulars now being: Homo sapiens; pH 2.9; Thermal; DSC; glycine 0.05 M; reversible: yes; structure 1LZ1; whole UniProt chain shown.
With I77F, the Tm was determined as 65.4 °C, the “heat capacity change of unfolding” value came out at 1.2 kcal/mol/K, the “unfolding enthalpy (calorimetric)” value amounted to 108 kcal/mol and the “unfolding enthalpy (van 't Hoff)” value was 116 kcal/mol.

The data set is the same for the next values; noted with them: Homo sapiens; pH 3.05; Thermal; DSC; glycine 0.05 M; reversible: yes; structure 1LZ1; whole UniProt chain shown.
As for I77F, the Tm came to 68 °C, the “heat capacity change of unfolding” value amounted to 1.29 kcal/mol/K, the “unfolding enthalpy (calorimetric)” value amounted to 111 kcal/mol and the “unfolding enthalpy (van 't Hoff)” value amounted to 120 kcal/mol.

The same data set, now with this note: Homo sapiens; pH 3.15; Thermal; DSC; glycine 0.05 M; reversible: yes; structure 1LZ1; whole UniProt chain shown.
Turning to I77F, the Tm was 69.8 °C, the “heat capacity change of unfolding” value was 1.36 kcal/mol/K, the “unfolding enthalpy (calorimetric)” value is 114 kcal/mol and the “unfolding enthalpy (van 't Hoff)” value is 123 kcal/mol.
On to I77T, for which the Tm was 64.9 °C, the “heat capacity change of unfolding” value is 1.2 kcal/mol/K, the “unfolding enthalpy (calorimetric)” value is 111 kcal/mol and the “unfolding enthalpy (van 't Hoff)” value turned out to be 119 kcal/mol.

The data set is the same for the next values; noted with them: Homo sapiens; pH 2.51; Thermal; DSC; glycine 0.05 M; reversible: yes; structure 1LZ1; whole UniProt chain shown.
I77L: the Tm was 61.4 °C, the “heat capacity change of unfolding” value worked out at 1.12 kcal/mol/K, the “unfolding enthalpy (calorimetric)” value worked out at 109 kcal/mol and the “unfolding enthalpy (van 't Hoff)” value is 117 kcal/mol.

The data set is the same for the next values; noted with them: Homo sapiens; pH 2.66; Thermal; DSC; glycine 0.05 M; reversible: yes; structure 1LZ1; whole UniProt chain shown.
As for I77L, the Tm came to 64.5 °C, the “heat capacity change of unfolding” value was 1.17 kcal/mol/K, the “unfolding enthalpy (calorimetric)” value is 113 kcal/mol and the “unfolding enthalpy (van 't Hoff)” value was 122 kcal/mol.

The data set is the same for the next values; noted with them: Homo sapiens; pH 2.83; Thermal; DSC; glycine 0.05 M; reversible: yes; structure 1LZ1; whole UniProt chain shown.
I77L: the Tm was found to be 67 °C, the “heat capacity change of unfolding” value came to 1.17 kcal/mol/K, the “unfolding enthalpy (calorimetric)” value was 116 kcal/mol and the “unfolding enthalpy (van 't Hoff)” value stood at 126 kcal/mol.

Staying with this data set, now noted: Homo sapiens; pH 2.96; Thermal; DSC; glycine 0.05 M; reversible: yes; structure 1LZ1; whole UniProt chain shown.
Turning to I77L, the Tm is 69.8 °C, the “heat capacity change of unfolding” value was 1.31 kcal/mol/K, the “unfolding enthalpy (calorimetric)” value turned out to be 119 kcal/mol and the “unfolding enthalpy (van 't Hoff)” value was 128 kcal/mol.

The data set is the same for the next values; noted with them: Homo sapiens; pH 3.17; Thermal; DSC; glycine 0.05 M; reversible: yes; structure 1LZ1; whole UniProt chain shown.
Consider I77L, for which the Tm stood at 72.1 °C, the “heat capacity change of unfolding” value amounted to 1.24 kcal/mol/K, the “unfolding enthalpy (calorimetric)” value amounted to 123 kcal/mol and the “unfolding enthalpy (van 't Hoff)” value was determined as 132 kcal/mol.

Still in this data set, the particulars now being: Homo sapiens; pH 2.71; Thermal; DSC; glycine 0.05 M; reversible: yes; structure 1LZ1; whole UniProt chain shown.
As to I77Y, the melting temperature (Tm) was found to be 51.4 °C, the “heat capacity change of unfolding” value stood at 1.55 kcal/mol/K, the “unfolding enthalpy (calorimetric)” value amounted to 79.3 kcal/mol and the “unfolding enthalpy (van 't Hoff)” value worked out at 84.4 kcal/mol.

Still in this data set, the particulars now being: Homo sapiens; pH 3.18; Thermal; DSC; glycine 0.05 M; reversible: yes; structure 1LZ1; whole UniProt chain shown.
For the variant I77Y, the Tm came to 59.5 °C, the “heat capacity change of unfolding” value was 1.27 kcal/mol/K, the “unfolding enthalpy (calorimetric)” value stood at 90.6 kcal/mol and the “unfolding enthalpy (van 't Hoff)” value is 97 kcal/mol.

Staying with this data set, now noted: Homo sapiens; pH 2.65; Thermal; DSC; glycine 0.05 M; reversible: yes; structure 1LZ1; whole UniProt chain shown.
In the case of I77M, the Tm worked out at 59.9 °C, the “heat capacity change of unfolding” value is 1 kcal/mol/K, the “unfolding enthalpy (calorimetric)” value amounted to 98.5 kcal/mol and the “unfolding enthalpy (van 't Hoff)” value came out at 108 kcal/mol.

The same data set, now with this note: Homo sapiens; pH 2.8; Thermal; DSC; glycine 0.05 M; reversible: yes; structure 1LZ1; whole UniProt chain shown.
Consider I77M, for which the Tm turned out to be 62 °C, the “heat capacity change of unfolding” value turned out to be 1.2 kcal/mol/K, the “unfolding enthalpy (calorimetric)” value turned out to be 103 kcal/mol and the “unfolding enthalpy (van 't Hoff)” value turned out to be 110 kcal/mol.
For the variant I77T, the Tm turned out to be 59.5 °C, the “heat capacity change of unfolding” value came to 1.17 kcal/mol/K, the “unfolding enthalpy (calorimetric)” value amounted to 106 kcal/mol and the “unfolding enthalpy (van 't Hoff)” value was 110 kcal/mol.

The same data set, now with this note: Homo sapiens; pH 2.95; Thermal; DSC; glycine 0.05 M; reversible: yes; structure 1LZ1; whole UniProt chain shown.
I77M: the Tm is 64.8 °C, the “heat capacity change of unfolding” value was 1.1 kcal/mol/K, the “unfolding enthalpy (calorimetric)” value amounted to 106 kcal/mol and the “unfolding enthalpy (van 't Hoff)” value was determined as 114 kcal/mol.

The data set is the same for the next values; noted with them: Homo sapiens; pH 3.13; Thermal; DSC; glycine 0.05 M; reversible: yes; structure 1LZ1; whole UniProt chain shown.
With I77M, the Tm stood at 66.5 °C, the “heat capacity change of unfolding” value amounted to 1.15 kcal/mol/K, the “unfolding enthalpy (calorimetric)” value amounted to 107 kcal/mol and the “unfolding enthalpy (van 't Hoff)” value was 117 kcal/mol.

Staying with this data set, now noted: Homo sapiens; pH 2.4; Thermal; DSC; glycine 0.05 M; reversible: yes; structure 1LZ1; whole UniProt chain shown.
With I77T, the Tm is 52.9 °C, the “heat capacity change of unfolding” value was 1.65 kcal/mol/K, the “unfolding enthalpy (calorimetric)” value worked out at 90.3 kcal/mol and the “unfolding enthalpy (van 't Hoff)” value was found to be 98.7 kcal/mol.

The same data set, now with this note: Homo sapiens; pH 2.62; Thermal; DSC; glycine 0.05 M; reversible: yes; structure 1LZ1; whole UniProt chain shown.
Take I77T: the melting temperature (Tm) worked out at 56.9 °C, the “heat capacity change of unfolding” value came to 1.67 kcal/mol/K, the “unfolding enthalpy (calorimetric)” value stood at 104 kcal/mol and the “unfolding enthalpy (van 't Hoff)” value came to 105 kcal/mol.

Still in this data set, the particulars now being: Homo sapiens; pH 2.99; Thermal; DSC; glycine 0.05 M; reversible: yes; structure 1LZ1; whole UniProt chain shown.
Consider I77T, for which the Tm turned out to be 62.9 °C, the “heat capacity change of unfolding” value amounted to 1.39 kcal/mol/K, the “unfolding enthalpy (calorimetric)” value worked out at 107 kcal/mol and the “unfolding enthalpy (van 't Hoff)” value worked out at 107 kcal/mol.
